Test results taken from paper PMC10663500, “High-throughput analysis system of interaction kinetics for data-driven antibody design” (Scientific Reports, 2023).
Substitutions are numbered along the chain they refer to.

B1: toripalimab Fab L.K55Y (Fab, V domains shown)
VH: QGQLVQSGAEVKKPGASVKVSCKASGYTFTDYEMHWVRQAPIHGLEWIGVIESETGGTAYNQKFKGRVTITADKSTSTAYMELSSLRSEDTAVYYCAREGITTVATTYYWYFDVWGQGTTVTVSS
VL: DVVMTQSPLSLPVTLGQPASISCRSSQSIVHSNGNTYLEWYLQKPGQSPQLLIYYVSNRFSGVPDRFSGSGSGTDFTLKISRVEAEDVGVYYCFQGSHVPLTFGQGTKLEIK
notes: as the heavy chain of Sm3; light chain of Sm3 with this change; numbers count from the chain's first residue; source: Brevibacillus, culture supernatant (ammonium sulfate precipitate); not shown: 6xHis, C-terminal, kept; 6xHN, C-terminal, kept
B2: toripalimab Fab L.S57Y (Fab, V domains shown)
VH: B1 VH
VL: B1 VL with Y55K, S57Y
notes: as for B1
B3: toripalimab Fab L.N58A (Fab, V domains shown)
VH: B1 VH
VL: B1 VL with Y55K, N58A
notes: as for B1
B4: toripalimab Fab L.H98Y (Fab, V domains shown)
VH: B1 VH
VL: B1 VL with Y55K, H98Y
notes: as for B1
B5: toripalimab Fab L.S61A (Fab, V domains shown)
VH: B1 VH
VL: B1 VL with Y55K, S61A
notes: as for B1
B6: toripalimab Fab L.V99F (Fab, V domains shown)
VH: B1 VH
VL: B1 VL with Y55K, V99F
notes: as for B1
B7: toripalimab Fab L.Q95A (Fab, V domains shown)
VH: B1 VH
VL: B1 VL with Y55K, Q95A
notes: as for B1
B8: toripalimab Fab L.V56A (Fab, V domains shown)
VH: B1 VH
VL: B1 VL with Y55K, V56A
notes: as for B1
B9: toripalimab Fab L.V56Y (Fab, V domains shown)
VH: B1 VH
VL: B1 VL with Y55K, V56Y
notes: as for B1
B10: toripalimab Fab L.H98A (Fab, V domains shown)
VH: B1 VH
VL: B1 VL with Y55K, H98A
notes: as for B1
B11: toripalimab Fab L.F94Y (Fab, V domains shown)
VH: B1 VH
VL: B1 VL with Y55K, F94Y
notes: as for B1
B12: toripalimab Fab L.V99G (Fab, V domains shown)
VH: B1 VH
VL: B1 VL with Y55K, V99G
notes: as for B1
B13: toripalimab Fab L.R59A (Fab, V domains shown)
VH: B1 VH
VL: B1 VL with Y55K, R59A
notes: as for B1
B14: toripalimab Fab L.S61Y (Fab, V domains shown)
VH: B1 VH
VL: B1 VL with Y55K, S61Y
notes: as for B1
B15: toripalimab Fab L.V99D (Fab, V domains shown)
VH: B1 VH
VL: B1 VL with Y55K, V99D
notes: as for B1
B16: toripalimab Fab L.S97A (Fab, V domains shown)
VH: B1 VH
VL: B1 VL with Y55K, S97A
notes: as for B1
B17: toripalimab Fab L.F60Y (Fab, V domains shown)
VH: B1 VH
VL: B1 VL with Y55K, F60Y
notes: as for B1
B18: toripalimab Fab L.R59Y (Fab, V domains shown)
VH: B1 VH
VL: B1 VL with Y55K, R59Y
notes: as for B1
B19: toripalimab Fab L.V99A (Fab, V domains shown)
VH: B1 VH
VL: B1 VL with Y55K, V99A
notes: as for B1
B20: toripalimab Fab L.V99H (Fab, V domains shown)
VH: B1 VH
VL: B1 VL with Y55K, V99H
notes: as for B1
B21: toripalimab Fab H.I51A (Fab, V domains shown)
VH: B1 VH with I51A
VL: B1 VL with Y55K
notes: heavy chain of Sm3 with this change; numbers count from the chain's first residue; as the light chain of Sm3; source: Brevibacillus, culture supernatant (ammonium sulfate precipitate); not shown: 6xHis, C-terminal, kept; 6xHN, C-terminal, kept
B22: toripalimab Fab L.V99E (Fab, V domains shown)
VH: B1 VH
VL: B1 VL with Y55K, V99E
notes: as for B1
B23: toripalimab Fab L.F94A (Fab, V domains shown)
VH: B1 VH
VL: B1 VL with Y55K, F94A
notes: as for B1
B24: toripalimab Fab L.F60A (Fab, V domains shown)
VH: B1 VH
VL: B1 VL with Y55K, F60A
notes: as for B1
B25: toripalimab Fab L.N58Y (Fab, V domains shown)
VH: B1 VH
VL: B1 VL with Y55K, N58Y
notes: as for B1
B26: toripalimab Fab L.S57A (Fab, V domains shown)
VH: B1 VH
VL: B1 VL with Y55K, S57A
notes: as for B1

biological target: T1, human programmed cell death protein 1 (hPD-1) C93S (aa 24-167) (Homo sapiens, UniProt Q15116, C93S); experiment: SPR; Carterra LSA; Fab from the ammonium sulfate precipitate of the culture supernatant immobilised on a NiHC200M chip; hPD-1 (1-1024 nM) or mPD-1-Fc (4-1024 nM) as analyte, fourfold dilution series, no regeneration; HBS-EP pH 7.4, 25 °C; medians over the spots of a construct, KD = koff/kon; settings: one partner purified
T1 construct: made as a fusion with a TEV site and human Fc; the Fc was cut off with TEV protease; source: Expi293F, purified (Protein A, TEV cleavage of Fc, SEC; monomer fractions); not shown: Fc (human), C-terminal, cleaved
Outline: (§1)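 Fabs, ammonium sulfate-precipitated from Brevibacillus supernatants and redissolved in HBS-EP, were captured in duplicate on a NiHC200M chip on a Carterra LSA at 25 °C. Fourfold series of human PD-1 (1–1024 nM) or mouse PD-1-Fc (4–1024 nM) were run without regeneration, with association for 10 min and dissociation for 5 min. Rates were fitted with the kdka model, choosing the better of slow- or fast-dissociation settings, and unconfirmed binders were given kon 10^3 […] and koff 10^−2 s^−1. The dissociation constant KD is koff/kon based on per-construct medians.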

T1 sequence (Q15116 24-167 C93S): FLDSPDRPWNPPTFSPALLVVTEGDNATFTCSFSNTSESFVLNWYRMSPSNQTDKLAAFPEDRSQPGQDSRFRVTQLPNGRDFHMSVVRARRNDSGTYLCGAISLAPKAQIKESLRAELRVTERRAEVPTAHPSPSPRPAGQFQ

| Binder | Kd | koff | kon |
| --- | --- | --- | --- |
| B1 | 1.4 nM | 1.3e-05 s⁻¹ | 9280 M⁻¹ s⁻¹ |
| B2 | < 0.338 nM | < 1e-05 s⁻¹ | 29500 M⁻¹ s⁻¹ |
| B3 | < 1.31 nM | < 1e-05 s⁻¹ | 7630 M⁻¹ s⁻¹ |
| B4 | 0.737 nM | 1.34e-05 s⁻¹ | 18100 M⁻¹ s⁻¹ |
| B5 | 1.39 nM | 2.72e-05 s⁻¹ | 19600 M⁻¹ s⁻¹ |
| B6 | 2.51 nM | 4.24e-05 s⁻¹ | 16900 M⁻¹ s⁻¹ |
| B7 | 2.28 nM | 4.22e-05 s⁻¹ | 18500 M⁻¹ s⁻¹ |
| B8 | < 0.489 nM | < 1e-05 s⁻¹ | 20400 M⁻¹ s⁻¹ |
| B9 | < 1.47 nM | < 1e-05 s⁻¹ | 6790 M⁻¹ s⁻¹ |
| B10 | < 0.436 nM | < 1e-05 s⁻¹ | 22900 M⁻¹ s⁻¹ |
| B11 | < 0.968 nM | < 1e-05 s⁻¹ | 10300 M⁻¹ s⁻¹ |
| B12 | 1.75 nM | 1.44e-05 s⁻¹ | 8230 M⁻¹ s⁻¹ |
| B13 | < 0.377 nM | < 1e-05 s⁻¹ | 26600 M⁻¹ s⁻¹ |
| B14 | < 0.5 nM | < 1e-05 s⁻¹ | 20000 M⁻¹ s⁻¹ |
| B15 | 1.62 nM | 1.8e-05 s⁻¹ | 11100 M⁻¹ s⁻¹ |
| B16 | 1.88 nM | 4.49e-05 s⁻¹ | 23800 M⁻¹ s⁻¹ |
| B17 | 0.608 nM | 1.12e-05 s⁻¹ | 18400 M⁻¹ s⁻¹ |
| B18 | < 0.356 nM | < 1e-05 s⁻¹ | 28100 M⁻¹ s⁻¹ |
| B19 | 1.61 nM | 3.6e-05 s⁻¹ | 22300 M⁻¹ s⁻¹ |
| B20 | 23.1 nM | 0.000239 s⁻¹ | 10400 M⁻¹ s⁻¹ |
| B21 | 1.06 nM | 1.6e-05 s⁻¹ | 15100 M⁻¹ s⁻¹ |
| B22 | < 1.03 nM | < 1e-05 s⁻¹ | 9690 M⁻¹ s⁻¹ |
| B23 | < 2.46 nM | < 1e-05 s⁻¹ | 4060 M⁻¹ s⁻¹ |
| B24 | < 0.669 nM | < 1e-05 s⁻¹ | 14900 M⁻¹ s⁻¹ |
| B25 | < 1.62 nM | < 1e-05 s⁻¹ | 6150 M⁻¹ s⁻¹ |
| B26 | < 0.698 nM | < 1e-05 s⁻¹ | 14300 M⁻¹ s⁻¹ |

biological target: T2, mouse programmed cell death protein 1 Fc fusion protein (mPD-1-Fc), mPD-1 C60S (aa 25-167) (Mus musculus, UniProt Q02242, stabilised); experiment: as above; settings: one partner purified
T2 construct: not cleaved; source: Expi293F, purified (Protein A, SEC; dimeric fraction); not shown: Fc (human), C-terminal, kept
Outline: as §1

| Binder | Kd | koff | kon |
| --- | --- | --- | --- |
| B1 | 235 nM | 0.0094 s⁻¹ | 40000 M⁻¹ s⁻¹ |
| B2 | 119 nM | 0.0054 s⁻¹ | 45300 M⁻¹ s⁻¹ |
| B3 | 186 nM | 0.00793 s⁻¹ | 42600 M⁻¹ s⁻¹ |
| B4 | 396 nM | 0.0148 s⁻¹ | 37400 M⁻¹ s⁻¹ |
| B5 | 103 nM | 0.00447 s⁻¹ | 43400 M⁻¹ s⁻¹ |
| B6 | 123 nM | 0.00104 s⁻¹ | 8450 M⁻¹ s⁻¹ |
| B7 | 130 nM | 0.00506 s⁻¹ | 39000 M⁻¹ s⁻¹ |
| B8 | 202 nM | 0.00784 s⁻¹ | 38700 M⁻¹ s⁻¹ |
| B9 | 290 nM | 0.0104 s⁻¹ | 35800 M⁻¹ s⁻¹ |
| B10 | 120 nM | 0.00523 s⁻¹ | 43600 M⁻¹ s⁻¹ |
| B11 | 155 nM | 0.0129 s⁻¹ | 83200 M⁻¹ s⁻¹ |
| B12 | < 0.848 nM | < 1e-05 s⁻¹ | 11800 M⁻¹ s⁻¹ |
| B13 | 130 nM | 0.00551 s⁻¹ | 42400 M⁻¹ s⁻¹ |
| B14 | 103 nM | 0.0044 s⁻¹ | 42500 M⁻¹ s⁻¹ |
| B15 | 19.8 nM | 0.000759 s⁻¹ | 38300 M⁻¹ s⁻¹ |
| B16 | 678 nM | 0.0274 s⁻¹ | 40400 M⁻¹ s⁻¹ |
| B17 | 133 nM | 0.00463 s⁻¹ | 34800 M⁻¹ s⁻¹ |
| B18 | 213 nM | 0.00916 s⁻¹ | 43000 M⁻¹ s⁻¹ |
| B19 | 15.2 nM | 0.000353 s⁻¹ | 23300 M⁻¹ s⁻¹ |
| B20 | 334 nM | 0.00991 s⁻¹ | 29600 M⁻¹ s⁻¹ |
| B21 | 630 nM | 0.04 s⁻¹ | 63500 M⁻¹ s⁻¹ |
| B22 | 201 nM | 0.00742 s⁻¹ | 36800 M⁻¹ s⁻¹ |
| B23 | 177 nM | 0.000967 s⁻¹ | 5460 M⁻¹ s⁻¹ |
| B24 | 182 nM | 0.00605 s⁻¹ | 33300 M⁻¹ s⁻¹ |
| B25 | 226 nM | 0.00916 s⁻¹ | 40500 M⁻¹ s⁻¹ |
| B26 | 209 nM | 0.00805 s⁻¹ | 38500 M⁻¹ s⁻¹ |
